# In US20150010566A1:
# B1: AT10-004 (antibody, V domains shown)
# VH: QVQLVQSGAEVRKPGASVKVSCKASGYTFTRHGISWVRQAPGQGLEWMGWISAYTGDTDYAQKFQGRVTMTTDTSTNTAYMELRSLRSDDAAVYYCARLRLQGEVVVPPSQSNWFDPWGQGTLVTVSS
# VL: EIVLTQSPATLSLYPGERATLSCRASQSVSRYLAWYQQKPGQAPRLLIYDASNRATGIPARFSGSGSGTDFTLTISSLEPEDFAVYYCQQRSNWLKITFGQGTRLEIKG
# B2: AT10-002 (antibody, V domains shown)
# VH: QLQLQESGPRLVKPSETLSLTCSVSGVSISSSNYYWGWIRQPPGKGLEWIGTIYHSGSTYYNPSLKSRLIISVDTSKNQFYLQLTSLTAADSAVYYCATGGGFGWSQTYFGYWGQGTLVTASS
# VL: QSALTQPASVSGSPGQSITISCTGTSSDVGAYNYVSWYQHHPGKAPKLMIYDVTYRPSGVSTRFSGSKSGNTASLTISGLQAEDEADYYCSSQSRSSTLVIFGGGTKLTVLG
# B3: AT10-003 (antibody, V domains shown)
# VH: QVHLVQSGAEVRKPGASVKVSCKVSGYTLNELSIHWLRQAPGRGLEWMGSFDPEDGETIYAQKFQGRVTMTGDTSTDTAYLELTSLRSEDTALYYCARGWGAVTSPFDFWGQGTLVTVSS
# VL: DIVMTQSPLSLPVTPGEPASISCRSSQSLLHSNGHIYFDWYLQKPGQSPQLLIYLVSKRASGVPDRFSGSGSGTDFTLKISRVEAEDVGVYYCMQALETPFTFGPGTKVHIKR
# B4: AT10-001 (antibody, V domains shown)
# VH: EVQLLESGGGLVQPGGSLRLSCAASGFSFSTYAMSWVRQAPGKGLEWVSGISGSGESTYYADSVKGRFTVSRDNSKNTLYLQMNSLRAEDTAVYYCAKQGDHIAWLLRGINFDYWGQGVLVTVSS
# VL: EIVLTQSPGTLSLSPGERATLSCRASQSVSSSYLAWYQQKPGQAPRLLIYGASTRATGIPDRFSGRGSGTDFTLTISSLEPEDFAVYYCQNYGSPFLFTFGPGTKVDIKR
# Target: HA of H3N2 HKX-31 virus (Influenza A virus H3N2 HKX-31)
# Experiment: cell-based or functional assay
row,Binder,"IC50, in vitro virus neutralization on MDCK-SIAT cells"
1,B1,0.017 µg/mL

# Target: HA of H5N1 A/turkey/Turkey/05 virus (Influenza A virus H5N1 A/turkey/Turkey/05)
# Experiment: cell-based or functional assay
row,Binder,"IC50, in vitro virus neutralization on MDCK cells"
1,B1,> 15 µg/mL

# Target: HA of Influenza H1N1 (A/Hawaii/31/2007), on infected MDCK-SIAT cells or on virus (Influenza A virus H1N1 A/Hawaii/31/2007)
# Experiment: cell-based or functional assay
row,Binder,"IC50, in vitro virus neutralization on MDCK-SIAT cells"
1,B2,> 15 µg/mL
2,B1,> 50 µg/mL
3,B3,> 15 µg/mL

# Target: HA of Influenza H1N1 (A/Neth/602/2009), on infected MDCK cells or on virus (Influenza A virus H1N1 A/Neth/602/2009 (host Human))
# Experiment: cell-based or functional assay
row,Binder,"IC50, in vitro virus neutralization on MDCK cells"
1,B2,> 15 µg/mL
2,B1,> 15 µg/mL
3,B4,> 15 µg/mL
4,B3,> 15 µg/mL

# Target: HA of Influenza H3N2 (A/Netherlands/177/2008), on infected MDCK-SIAT cells or on virus (Influenza A virus H3N2 A/Netherlands/177/2008)
# Experiment: cell-based or functional assay
row,Binder,"IC50, in vitro virus neutralization on MDCK-SIAT cells"
1,B2,0.18 µg/mL
2,B1,0.17 µg/mL
3,B4,0.64 µg/mL
4,B3,> 50 µg/mL

# Target: HA of Influenza H3N2 (A/Swine/St. Oedenrode/1996), on infected MDCK cells or on virus (Influenza A virus H3N2 A/Swine/St. Oedenrode/1996 (host Swine))
# Experiment: cell-based or functional assay
row,Binder,"IC50, in vitro virus neutralization on MDCK cells"
1,B2,0.3 µg/mL
2,B1,2.3 µg/mL
3,B4,14 µg/mL
4,B3,> 15 µg/mL

# Target: HA of high pathogenic H7N7 (A/Ch/Neth/621557/03), on infected MDCK cells or on virus (Influenza A virus H7N7 A/Ch/Neth/621557/03 (host Chicken))
# Experiment: cell-based or functional assay
row,Binder,"IC50, in vitro virus neutralization on MDCK cells"
1,B2,0.1 µg/mL
2,B1,0.2 µg/mL
3,B4,0.4 µg/mL
4,B3,> 15 µg/mL

# Target: HA of low pathogenic H7N1 (A/Ch/Italy/1067/1999), on infected MDCK cells or on virus (Influenza A virus H7N1 A/Ch/Italy/1067/1999 (host Chicken))
# Experiment: cell-based or functional assay
row,Binder,"IC50, in vitro virus neutralization on MDCK cells"
1,B2,3.6 µg/mL
2,B1,0.6 µg/mL
3,B4,> 15 µg/mL
4,B3,> 15 µg/mL
